According to paper PMC8605372:

Key:
[1] = biological target: dansyl-Gab2(637-649) peptide (UniProt Q9UQC2); assay: Stopped-flow fluorescence (FRET), displacement kinetics; details: 298 K in Results, 283 K in Methods (conflict in the article), no added salt (50 mM buffer only), 50 mM acetate at pH 5.0 and 5.5, 50 mM Bis-Tris at pH 6.0 and 6.5, 50 mM Hepes at pH 7.0 and 7.5, 50 mM Tris-HCl at pH 8
[2] = biological target: dansyl-Gab2(637-649) peptide (UniProt Q9UQC2); assay: Stopped-flow kinetics; K D from the rate constants of C1 and C2; details: 298 K in Results, 283 K in Methods (conflict in the article), no added salt (50 mM buffer only), 50 mM acetate at pH 5.0 and 5.5, 50 mM Bis-Tris at pH 6.0 and 6.5, 50 mM Hepes at pH 7.0 and 7.5, 50 mM Tris-HCl at pH 8
[3] = biological target: dansyl-Gab2(637-649) peptide (UniProt Q9UQC2); assay: Stopped-flow fluorescence (FRET Trp112 to dansyl), pseudo-first-order association kinetics; details: 298 K in Results, 283 K in Methods (conflict in the article), no added salt (50 mM buffer only), 50 mM acetate at pH 5.0 and 5.5, 50 mM Bis-Tris at pH 6.0 and 6.5, 50 mM Hepes at pH 7.0 and 7.5, 50 mM Tris-HCl at pH 8
[4] = biological target: dansyl-Gab2(637-649) peptide (UniProt Q9UQC2); assay: Stopped-flow fluorescence (FRET), pseudo-first-order association kinetics, ionic-strength series; details: pH 8.0, 298 K in Results, 283 K in Methods (conflict in the article)
[5] = biological target: His169 (UniProt position 169, KSKVTHVMIRC); assay: kinetics (stopped-flow fluorescence/FRET binding and displacement); details: 283 K according to Methods (stopped-flow binding and displacement) and the Figure S2 legend. Results text states 298 K.; 50 mM buffer, no added salt stated for the pH series; 50 mM acetate (pH 5.0, 5.5), 50 mM Bis-Tris (pH 6.0, 6.5), 50 mM Hepes (pH 7.0, 7.5), 50 mM Tris-HCl (pH 8.0); 2 mM DTT in all; Folded domain, cysteines reduced. The binding reaction with the phosphopeptide was followed, so the pKa is derived from both kon and koff.

Substance	k off ([1]; pH 5.0) [s⁻¹]	k off ([1]; pH 5.5) [s⁻¹]	k off ([1]; pH 6.0) [s⁻¹]	k off ([1]; pH 6.5) [s⁻¹]	k off ([1]; pH 7.0) [s⁻¹]	k off ([1]; pH 7.5) [s⁻¹]	k off ([1]; pH 8.0) [s⁻¹]	K D ([2]; pH 5.0) [µM]	K D ([2]; pH 5.5) [µM]	K D ([2]; pH 6.0) [µM]	K D ([2]; pH 6.5) [µM]	K D ([2]; pH 7.0) [µM]	K D ([2]; pH 7.5) [µM]	K D ([2]; pH 8.0) [µM]	k on ([3]; pH 5.0) [M⁻¹ s⁻¹]	k on ([3]; pH 5.5) [M⁻¹ s⁻¹]	k on ([3]; pH 6.0) [M⁻¹ s⁻¹]	k on ([3]; pH 6.5) [M⁻¹ s⁻¹]	k on ([3]; pH 7.0) [M⁻¹ s⁻¹]	k on ([3]; pH 7.5) [M⁻¹ s⁻¹]	further results
SHP2 (PTPN11) C-terminal SH2 domain, wild type	80	79	112	141	147	234	210	3.8	2.8	4.7	6.9	6.8	17.2	21.3	2.11e+07	2.86e+07	2.41e+07	2e+07	2.2e+07	1.36e+07	k on ([3]; pH 8.0): 9.9e+06 M⁻¹ s⁻¹; k on ([4]; highest of the series: 50 mM Tris-HCl + 150 mM NaCl, Tris-HCl 50 mM pH 8.0): 6.4e+06 ± 500000 M⁻¹ s⁻¹; k on ([4]; lowest of the series: 10 mM Tris-HCl, no NaCl, Tris-HCl 10 mM pH 8.0): 3.14e+07 ± 3.8e+06 M⁻¹ s⁻¹
SHP2 C-SH2 domain H114A H114A	92	102	148	125	144	253	263	8.5	3.2	2.9	5.2	4.7	12	12	1.08e+07	3.2e+07	5.2e+07	2.4e+07	3.1e+07	2.1e+07	k on ([3]; pH 8.0): 2.3e+07 M⁻¹ s⁻¹
SHP2 C-SH2 domain H116A H116A	103	98	105	130	170	204	196	6.6	3.4	5.6	6.4	11	20	14	1.6e+07	2.9e+07	1.9e+07	2e+07	1.5e+07	1.1e+07	k on ([3]; pH 8.0): 1.4e+07 M⁻¹ s⁻¹
SHP2 C-SH2 domain H132A H132A	80	69	91	143	168	219	287	3.6	2.4	2	10.4	8.5	12	27	2.2e+07	2.9e+07	4.5e+07	1.4e+07	2e+07	1.8e+07	k on ([3]; pH 8.0): 1.1e+07 M⁻¹ s⁻¹
SHP2 C-SH2 domain H143A H143A	154	127	149	226	183	225	148	14.3	4	7.4	25	23	17	10.8	1.1e+07	3.2e+07	2e+07	9e+06	8e+06	1.3e+07	k on ([3]; pH 8.0): 1.4e+07 M⁻¹ s⁻¹
SHP2 C-SH2 domain H196A H196A	125	114	116	132	125	172	162	5.3	2.9	5.4	3.4	3.4	13	13	2.4e+07	4e+07	2.1e+07	3.9e+07	3.7e+07	1.3e+07	k on ([3]; pH 8.0): 1.2e+07 M⁻¹ s⁻¹
Tyrosine-protein phosphatase non-receptor type 11 (SHP2), C-terminal SH2 domain (C-SH2) (Homo sapiens (inferred; organism not stated in the article))																					pKa [5]: 7.1 ± 0.2
